Measurements as given in the DeepSol protein solubility set.

assay: soluble on expression in E. coli; label from the status in PepcDB or PDB records

Row | Sequence | soluble on expression in E. coli
1 | MADNINESEIIERLNSAPSVRGFFIATVDVFNESIDGLIQRIFRKDNFAVQSVVGPLLQDSGPLGDLSVRLKLLFGLGVLPDDIYHDIEDIIKLKNHLNSDASDYEFTDPNILEPIKKLHLVKKMGMVQLEVNEPDDDIDLEFYQLQLQRQQQIIKSGLSLAIVEICNELGKDSPF | not soluble
2 | MNTVCTHCQAINRIPDDRLQDAAKCGRCGHELFDGEVINATGETLDKLLKDDLPVVIDFWAPWCGPCRNFAPIFEDVAEERSGKVRFVKVNTEAERELSARFGIRSIPTIMIFKHGQVVDMLNGAVPKAPFDSWLNEAL | not soluble
3 | MVSAGGVVLKGDPPEVLVVSLRGGRVVTLPKGQVEPGERYPETAVREVREETGVEASVLAPLGRVRYYFTVHEPEGPVTVSKEVHYFLMRHLGGTPRPQLTEVEDAFFLPASEALERLSYPNEREMLKRALLRLRARAKKG | soluble
4 | EITHRTKTRPVKVGPLTIGGNNEVVIQSMTTTKTHDVEATVAEINRLAEAGCQIVRVACPDERAANAIADIKKRISIPLVVDIHFDYKLALKAIEGGADKIRINPGNIGRREKVEAVVKAAKDKGIPI | not soluble
5 | MHIKPIIQGVVARSAHPYGCEQAVLQQIQYVKQANPIKSGPKRVLILGASSGFGLAARIALTFGGAQADTIGVSFERAPSETQTGSAGYYNNLFFKQHAEQAGRIAVNLEGDVFSVDMREQVIEAIETYFEGEVDLIIYSIASGMRRKPRSEKADPEFWRSAIKPIGEAVSGATLLLENDTWIETTLQPASEEEIEGTLRVMGGDDWENWIDTLINAESLAEGCKTIAFSYMGPDVTHPIYLDGTLGRAKIDLHQTSHALNLKLANFDGGAYAVVCKALVTKASVFIPGLSPYLLALYQVMKNKGTHEGCIEQMQRLFSDKLYGHSRIPLDSERLIRMDDWEMNPDTQVQVRERLQQMNASNFQQLGDYAGFKREFMQLNGFEFDQIDYSQSV | not soluble
6 | MEQFINPRVKDIQISGIRQFSNMIQNYDNLISLTIGQSDFPTPSLVKEAAKRAITENYTSYTHNAGLLELRKAACNFVKDNYDLHYSPETETIVTIGASEAIDVAFRTILEPGTEVILPAPIYPGYEPIIRLCGATPIFIDVRETGFRLTAEALENAITEKTRCVVLPYPSNPTGVTLSKKELQDIADVLKDKNIFVLSDEIYSELVYEQTHTSIAHFPEMREKTIVINGLSKSHSMTGWRIGLLFAPSYLAGHILKVHQYNVTCATSIAQYAAIEALTAAKDAPKMMRHQYKKRRDYVYNRLIQMGLTVEKPTGAFYLFPYVGHLTSSSFDFALDLVKEAGLAVVPGTAFSEYGEGYLRLSYAYSIETLKEGCDRLEAFLQQKAKS | not soluble
7 | KAAPAEPATGPFNVSATSPVTGQNYQMSCTAHDHVMRCSGGNNAIVLLTPNPTGVVEEKTYEYALEGTVVLKNTAEVLEGLKPPNNDNPNNEYILLWFDNPMDVAGKHAGNRDQLSTKNVRYLSLGKKETTQYGPLPDTTGPWRQYVGKRIRLHVNSDNMRYPSDTGMPLGALRLEEAPDIRIEEL | not soluble
8 | MGALERFGVDFITVDQGNGQWDIQAIEINLRKGGTTHPFMTLKLLTNGRYELSTGLFYSQQGRPKYYIATDNLQKDRYRGLLPNDLMDIIAHHRLHFDSCTETGTVFHLMGCLSQFGKLGLTSIGDSPQQAEDIYNKVVKVLDEETRVNNKQFPLFSDYTFPNLEHHHHHH | not soluble
9 | RALIGRLPDGRADLLENFAAGPGLAQRFGERYPEHAGRDLRFIMELYHAGDTHARDYITATLAAAGETIAGFASAIDVDAIIIGGGVGNIGDAIIKPFAHGFAAHAIPPLDTIPIRQAQLGTDAPIVGAAHLGHSAIE | not soluble
10 | MGSDKIHHHHHHMTQLKTLPIYDPTLFEGAAEVYAQYRTKYPPAVFDKLTEIFNLNGQGRLLDLGTGPGLIAIPLSTKFQEVVAIDPDPEMLKEAQRQAATAGANNITWLEQGAELINPSLGVFKLATIGRAFHWMERQLVLERLYELLADDGAIALLNTGDDPWKSPLPWKQAAIGVVKKWLGEERRTGQRGQGIRKPVDPPHEVVIANSKFARQEVHEVTFEKSWTVSSYLGYLYTTAFSLKIFYGDKAEEFEADIKDALLAVEPSGHFTEELKATIQVVWKH | not soluble
11 | GPGSMETAIQQDPVYVRLGVFRRLHGSNEVEWLMLRRINREMRPPDIPPISLKLPGKWTLLYERYKEAAIRTLWEETGITVDPTSVFPTAQLYQTSPKYYWRVPVRYFVAEVPHDVRVEGPQVVPTQYMRNWDVRLLRQSPDPIDRAWAQLADPITGCAWMKAPMIDELQKPLRGEKYMATRYTPPPYSNLQEVVGLGDGDQDTQNKETEAADPNA | not soluble
12 | MDEAYKMRCDWYHHGELVSGGESESKFSQLNDEVVELYQAAEYLDEEFAGMVHLGEIVERDDKKEDEFLAKLADAETPLYPSCFNHSKLSAIMSLFTLKTKNGWSDKSHNDLLETLPEMLLEDNVLHSSLYEVKKFLKSFDMG | not soluble
13 | NVPVGMSIGVYDYELSDYAERMDAISGGAIRSSFARNGGIGFDIGASLQIGYMIKFTDSIGLSILAEAGYSHDTYSYISRLDKNNSYSYSFESLQLGVIPKFNIKNFAIGIGGGVKIPLAGNIHTKTSLFESNTKLTSDDIKRLYEKALMPYIKVTFDYSIFFTQKTAFNIGLYLGYDFGLEPNIYTVDGAIDGNRLVVDEVSYSSFDVGLQVGLKFGPSTK | not soluble
14 | LVFDEEGNSSWIATDTVKVAASRPVELNPFYIDTVYEVSGKKIAYMVYNEFSTGPNNQATDTEYREQMKQIFARFKGQSPDAFILDLRYNPGGYLSCATDLGSYLAPAADLGKVFCTTLYNDISDPQKIDFPLNTGLASENLNLSKLYVLTSKFTASASEAVINCLRPYIGTENVVVIGETTVGKNVAMEPYQDERYNFILWPVVAYVLNSAGQANYVNGITPDFTLSER | not soluble
15 | MRDRTCVVPGCGATRGLHAHHIRHWQDGGATELANLVLVCPYHHRAHHRGLITITLEHHHHHH | not soluble
16 | MSIEIKTNSVEPIRHTYGHIARRFGDKPATRYQEASYDIEAKTNFHYRPQWDSEHTLNDPTRTAIRMEDWCAVSDPRQFYYGAYVGNRAKMQESAETSFGFCEKRNLLTRLSEETQKQLLRLLVPLRHVELGANMNNAKIAGDATATTVSQMHIYTGMDRLGIGQYLSRIALMIDGSTGAALDESKAYWMDDEMWQPMRKLVEDTLVVDDWFELTLVQNILIDGMMYPLVYDKMDQWFESQGAEDVSMLTEFMRDWYKESLRWTNAMMKAVAGESETNRELLQKWIDHWEPQAYEALKPLAEASVGIDGLNEARAELSARLKKFELQSRGVSA | soluble
17 | MSSETFYKTQQDLRKAESHASHAAGGNTPANSNVSAMKVTPNLLIQFGDTAANSTNQSIVDEHTDKAKAIEERKANLPLPDQPPVASDWQSADQRAVNVGSGGVQGSVSGESNTALRDPATAGSSARMSGEELHKETQPTGNVGRQATEGLSDIPGDAKARK | not soluble
18 | MLRVLVRTGSEACRAVSTSTAVLSVHPVVKSEDLSAKEIWDRRSKLRVPKLQKDEQLSSKVYFAPEWDLEKKPNLDEGFVNPLKGYGMTPEKWEYYNKVVWPPNYIVPETGLPKPKEVFHCKESVHFSPKRMWAACQLVWKMNVDEAITQLDMQQLKACNLLMDTIKKAKSRAADEFHIEYPSQMYVADAFPVQSNIVKGARRHAHDNWNTIRYRYIHIFVRLEEGPAPQQKQRHPQKNGWDHMDEYYNYLRSRTVKYSI | not soluble
19 | SDLPDSASRVFCGRILSMVNTDDVNAIILAQKNMLDRFEKTNEMLLNFNNLSSARLQQMSERFLHHTRTLVEMKRDLDSIFRRIRTLKGKLARQHPEAFSHIPEASFLEEEDEDPIPPSTTTTIATSEQSTGSCDTSPDTVSPSLSPGFEDLSHVQAGSPAINGRSQTDDEEMTGE | soluble
20 | SGGLLIASAHFGAYVCGTDIDYNTVHGLGKASRKNQKWRGPDENIRANLRQYGLEKFYLDVLVSDASKPSWRKGTYFDAIITDPPYGIRESTRRSGSQKDIPKGIEKCPESHVPVSLSYHLSDMFFDLLNFAAETLVLGGRLVYWLPVYTPEYTEEMVPWHPCLRLISNCEQKLSSHTARRLITMEKVKEFENRDKYSHLLSDHFLPYQGHNSFREKYFSGVTKRIAKEEKCSHE | not soluble
21 | SNAMKVINVDVAIIGTGTAGMGAYRAAKKHTDKVVLIEGGAYGTTCARVGCMPSKLLIAAADASYHASQTDLFGIQVDRISVNGKAVMKRIQTERDRFVGFVVESVESFDEQDKIRGFAKFLDEHTLQVDDHSQVIAKRIVIATGSRPNYPEFLAAAGSRLLTNDNLFELNDLPKSVAVFGPGVIGLELGQALSRLGVIVKVFGRSGSVANLQDEEMKRYAEKTFNEEFYFDAKARVISTIEKEDAVEVIYFDKSGQKTTESFQYVLAATGRKANVDKLGLENTSIELDKKNSPLFDELTLQTSVDHIFVAGDANNTLTLLHEAADDGKVAGTNAGAYPVIAQGQRRAPLSVVFTEPQVASVGLSLRQIEDLYADQDAANYVVGQVSFEGQGRSRVMGKNKGLLNVYADRTSGEFLGAEMFGPAAEHIGHLLAWARQQQMTVQAMLTMPFYHPVIEEGLRTALRDAQQKLAIEKHDMNEFIMTHDNAMKLVI | soluble
22 | NDPDADRFALAARKPDGGYKMLTGDQVGTLFGHYLLTHTEASGKLVGNTIVSSTLLKKIAESMGAEYFQTLTGFKWLTNVAMQKETKEKQFLFAYEEALGYTIGSQVWDKDGLSALVAFAQLTAELATQGKCVWDQLESIYRQHGIHIN | not soluble
23 | SVTIDHTTENAAPAQAPVSDRAWALFRALDGKGLVPDGYVEGWKKTFEEDFSPRRGAELVARAWTPRRGAELVARAWTDPEFRQLLLTDGTAAVAQYGYLGPQGEYIVAVEDTPTLKNVIVCSLCSCTAWPILGLPPTWYKSFEYRARVVREPRKVLSEMGTEIASDIEIRVYDTTAETRYMVLPQRPAGTEGWSQEQLQEIVTKDCLIGVAIPQVPTV | soluble
24 | MPFKPLVTAGIEGLLNTFLYRSPALKSARTRLQGKVLCVKLKGFSMPLVLVFSERQVDVLGAWEGEADCTVITQASVLPKLRDRQQLATLIRSGELEVQGDIQVVQNFVALADLAEFDPAELLAPYTGDIAAESIGKVVRGGAKFLRHGFQRQQRYAAEAITEEWRMAPGPLEVAWFAEETAAVERAVDSLTTRLEKLEAK | not soluble
25 | MVELTPAAIQELERLQTHGVRRGQAAILRIQVQPSECGDWRYDLALVAEPKPTDLLTQSQGWTIAIAAEAAELLRGLRVDYIEDLMGGAFRFHNPNASQTCGCGMAFRVSRS | soluble
26 | MRKELVFVLLALFLCAGCNGNKKKMNGEHDLDAANITLDDHTISFYYNWYGNPSVDGEMKHWMHPIALAPGHSGDVGAISGLNDDIACNFYPELGTYSSNDPEIIRKHIRMHIKANVGVLSVTWWGESDYGNQSVSLLLDEAAKVGAKVCFHIEPFNGRSPQTVRENIQYIVDTYGDHPAFYRTHGKPLFFIYDSYLIKPAEWAKLFAAGGEISVRNTKYDGLFIGLTLKESELPDIETACMDGFYTYFAATGFTNASTPANWKSMQQWAKAHNKLFIPSVGPGYIDTRIRPWNGSTTRDRENGKYYDDMYKAAIESGASYISITSFNEWHEGTQIEPAVSKKCDAFEYLDYKPLADDYYLIRTAYWVDEFRKARSASEDVQLEHHHHHH | soluble
